# Experiment: label from the status in PepcDB records
row,Sequence,protein production
1,MVLVLDFGSQYTRLIARRLRELRAFSLILPGDAPLEEVLKHRPQALILSGGPRSVFDPDAPRPDPRLFSSGLPLLGICYGMQLLAQELGGRVERAGRAEYGKALLTRHEGPLFRGLEGEVQVWMSHQDAVTAPPPGWRVVAETEENPVAAIASPDGRAYGVQFHPEVAHTPKGMQILENFLELAGVKRDWTPEHVLEELLREVRERAGKDRVLLAVSGGVDSSTLALLLAKAGVDHLAVFVDHGLLRLGEREEVEGALRALGVNLLVVDAKERFLKALKGVEDPEEKRKIIGREFVAAFSQVARERGPFRFLAQGTLYPDVIESAGGHGAAKIKSHHNVGGLPEDLEFELLEPFRLLFKDEVRELALLLGLPDTLRLRHPFPGPGLAVRVLGEVTEERLEILRRADDIFTSLLREWGLYEKVAQALAVLTPVRSVGVAGDERKYGYVLALRAVTTEDFMTADWARLPLEFLDEAARRITRRVPEIGRVVYDLTSKPPATIEWE,not failed
2,MVLYFLSSIIIAPIKTGDKAPQVDECCLKTVSDLTFFTNNEKYIWPVPDFCVRMELLAFEAIPQLSKKIIEDIPGAYQGCPRMCKVKFKKNHLKGFTLDTIYAELGTTHVIDCIVTPRIEEQELMKTIMEEEDDDDVADVVVESWLKRHKEGRLIMFDELYQQDIQTLKITSSR,failed
3,MVNDIKKTALAVVTALITAVSAQLSFKIGPVPYTMQNFGVMLSGFLLGPYYGLLSMAIYLALIAFSLPIAAGGGGLGVLIGPTAGFLYGFLISSFLAGVFRRAIWREGSRREVLMLWLSTLVASMPIYLLGFFVFYNFAMIDEKLLIRSESAVRAFNLSFSSPTMVIFAATVLIFLPQDFFVDHLLAVLVFRYVHRMLNERGVEVD,failed
4,MVNEYKAHSSFILKVVITLIGYWIASILAIIIYSMFFKIETNTFLLCLLLPTPIIWFNILIGMGLTYRCMENLTIYDKHKLWCVFVRDLTLTILATILATLTTMELYQIEHPLKPIEFVFIVGLVLIVGFTIITTLIIKYLKIIKNLKKISKN,failed
5,MVNFDCVIEELDEKTKEMLRVIDEDADSFAARAEMYYKKRPELIAMVEEFYRSHRSLAERYDLLRPSSVHKHGSDSESHEKSSTCDESSWSEACETHEEYAESEIDNGESKWVDESEIDGIVEEIEPSEVVYSEGNGNSEMMKIEIERLREENKVYSEMVREKDEEKREAIRQMSVAIQMLKEENSELKKRVTNTVVARRNKEGGDSQRKQQMWKPFEFKKIKLEGLWGKGFGNWALPNTDSTSKELMTL,failed
6,MVNIFWFSLAVIIYSYFIYPFILLIFSAVKQAISDTRYLWKKSQRRVVDKDNLPPVSIIIAAYNEESCIKARVENLLSLDYPQDKLTILIGSDGSQDKTAEILTSFDAVNLKVHIFEKNRGKMSVLNDLVEQVNSDYIVFSDANTHFNKNTIEYLVRHFNHDNIGAVCGELHLVDVDSGDNKDNIYWRYEQVLKFHEARLNALQGANGAIYAIRKELFIPLPANTIVDDFQIAMNVAKQGFRLIYDPEAIAIEEIAPNLQAEEGRRVRIGLGNYQALFTMAWALNPLLGWRFIAYISHKVCRWFVPHLMLITLISNLLLISNPLYQLLFIGQILFYSVAFYGIKKQQKRQKVSSIIGIIAFFVSMNIALMRGFIRYFSSNVQGTWERTTR,failed
7,MVNLMKNEKEINGKKSHFFSLSESRFMRFLGGNDLIYALIALVLLGIVIFIFDKISYVFQPFIIVFNTIAAPIIVSLVLFYLFNPIVNMMERYRIPRLLGITIIYVAIIGIITLIVNLLIPIIGSQIESFIKNTPNYLHKITRSLDKLNNNTILSGYMGQVNEWLESAQKKIPSMVSDYSDGFGSKLATFAEAVANIGIVIGTTPFVLFFMLKDGHKFKDYTTKIMPPKFRKDFHDLLEKMSVQVGSYIQGQIIVSFCIGLLLFIGYSIIGLKYALVLASIAAVTSVVPYLGPTIAISPAIVIAIITSPLMLLKLAVVWTLVQFFEGHFISPNVMGKTLKIHPLTIIFILLCAGNLMGIVGVIIGIPLYAVLKVLVSHIFMLFKRRYNRYYGNDAGEYTITEEEKGIKQ,failed
8,MVNPTISDDLFAMIAKKVADKSWLDLKPLIRSGTRGRDIVYRPDVLKDANIYSLCRVPDDFQVGGGHNPTGPQGEGRNRPFFKRCLLANNPTAVYNEAIRVLIHETDINGALKLMQRHAPVRADATIVCAIIFICAGYEWN,not failed
